Assay results: PMC11239674
Residue numbers refer to the chain shown, from its start.

Key:
Experiment in all cases: MST
Settings in all cases: 25 mM Tris-HCl pH 8.0, 150 mM NaCl (150 mM LiCl for Sc1 LiCl), 1 mM DTT, 0.1 mg/ml BSA; 20 nM Cy5-RNA; about 2 min incubation; temperature not stated; low values mean tight binding
[1] = target: T1, AtGRP7YtoG Y103G;Y111G;Y118G;Y131G;Y138G;Y148G;Y159G;Y167G (Arabidopsis thaliana) (UniProt Q03250)
T1 sequence: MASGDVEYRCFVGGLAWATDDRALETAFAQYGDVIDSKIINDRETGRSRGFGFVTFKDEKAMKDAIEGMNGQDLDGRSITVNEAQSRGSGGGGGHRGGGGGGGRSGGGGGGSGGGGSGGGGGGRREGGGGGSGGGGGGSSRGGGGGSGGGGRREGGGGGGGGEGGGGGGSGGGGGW

[2] = target: T2, AtBnGRP7 (Arabidopsis thaliana / Brassica napus chimera) (UniProt Q03250)
T2 sequence: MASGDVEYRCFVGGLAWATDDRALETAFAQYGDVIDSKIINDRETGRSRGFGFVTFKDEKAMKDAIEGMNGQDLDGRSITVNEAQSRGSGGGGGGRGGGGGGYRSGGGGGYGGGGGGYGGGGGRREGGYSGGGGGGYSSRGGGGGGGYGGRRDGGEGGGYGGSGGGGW

[3] = target: T3, AtGRP7YtoE Y103E;Y111E;Y118E;Y131E;Y138E;Y148E;Y159E;Y167E (Arabidopsis thaliana) (UniProt Q03250)
T3 sequence: T1 sequence with G103E, G111E, G118E, G131E, G138E, G148E, G159E, G167E

BnGRP7 (Brassica napus) = target: T4, BnGRP7 (Brassica napus) (UniProt A0A078J5Z4)
T4 sequence: T2 sequence with G4P, A29S, Y31F, I35L, A61S

[4] = target: T5, AtGRP7 (Arabidopsis thaliana) (UniProt Q03250)
T5 sequence: T1 sequence with G103Y, G111Y, G118Y, G131Y, G138Y, G148Y, G159Y, G167Y

[5] = target: T6, AtGRP7StoE S132E;S139E (Arabidopsis thaliana) (UniProt Q03250)
T6 sequence: T1 sequence with G103Y, G111Y, G118Y, G131Y, S132E, G138Y, S139E, G148Y, G159Y, G167Y

[6] = target: T7, AtGRP7StoG S132G;S139G (Arabidopsis thaliana) (UniProt Q03250)
T7 sequence: T1 sequence with G103Y, G111Y, G118Y, G131Y, S132G, G138Y, S139G, G148Y, G159Y, G167Y

[7] = target: T8, AtGRP7short (Arabidopsis thaliana) (UniProt Q03250)
T8 sequence: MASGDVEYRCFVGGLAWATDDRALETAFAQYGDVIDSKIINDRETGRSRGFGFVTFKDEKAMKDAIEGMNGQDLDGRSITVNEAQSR

Substance	Kd [1] [µM]	Kd [2] [nM]	Kd [3] [µM]	Kd (BnGRP7 (Brassica napus)) [nM]	Kd [4] [nM]	Kd [5] [nM]	Kd [6] [nM]	Kd [7] [µM]
AtCOR15A	3.75	741	23.4	323	224	738	2230	
GGAUGGCGAUGUCUUUCUCAGGAGCUGUUCUCACUGGUAUGGCUUCUUCUUUCCACAGCGGAGCCAAGCAGAGCAGCUUCGGCGCUGUCAGAGUCGGCCAGAAAACUCAGUUCGUCGUCGUUUCUCAACGCAAGAAGUCGUUGAUCUACGCCGCUAAAGGUGACGGCAACAUCCUCGAUGACCUCAACGAGGCCACAAAGAAAGCUUCAGAUUUCGUGACGGAUAAAACAAAAGAGGCAUUAGCAGAUGGUGAGAAAGCGAAAGACUACGUUGUUGAAAAAAACAGUGAAACCGCAGAUACAUUGGGUAAAGAAGCUGAGAAAGCUGCGGCGUAUGUGGAGGAGAAAGGAAAAGAAGCCGCAAACAAGGCGGCAGAGUUCGCGGAGGGUAAAGCAGGAGAGGCUAAGGAUGCCACAAAGUAG [AtCOR15A]	2.7	548		153	62	2470	2300	
GGAUGUCUGAAGUUGAGUACCGGUGCUUUGUCGGCGGCCUUGCCUGGGCCACCAAUGAUGAAGAUCUUCAAAGGACGUUCUCACAGUUCGGCGACGUUAUCGAUUCUAAGAUCAUUAACGACCGCGAGAGUGGAAGAUCAAGGGGAUUCGGAUUCGUCACCUUCAAGGACGAGAAAGCCAUGAGGGAUGCGAUUGAAGAGAUGAACGGUAAAGAGCUCGAUGGACGUGUCAUCACCGUGAACGAGGCUCAGUCGAGAGGUAGCGGCGGUGGCGGAGGAGGCCGUGGUGGAAGCGGUGGUGGUUACCGCAGCGGAGGCGGUGGUGGAUACUCAGGAGGCGGUGGCGGCGGAUACUCAGGAGGAGGCGGUGGUGGUUACGAGAGACGUAGCGGAGGUUACGGAUCUGGUGGAGGCGGUGGUGGCCGAGGAUACGGUGGUGGUGGACGCCGUGAGGGAGGUGGCUACGGAGGCGGUGAUGGUGGAAGUUACGGAGGCGGUGGUGGCGGCUGGUAA [AtGRP8]	0.381	135	2.79	9160	177	937	493	
GGAUUUGCGCAUUAAACCAAAAAGUGUCACGUGAUAUGUCCCCAACCACUACGAAUUUUAACUACAGAUUUAACCAUGGUUAAACCAGAAUUCACGUAAACCGACUCUAAACCUAGAAAAUAUCUAAACCUUGGUUAAUAUCUCAGCCCCCUUAUAAAUAACGAGACUUCGUCUACAUCGUUCUACACAUCUCACUGCUCACUACUCUCACUGUAAUCCCUUAGAUCUUCUUUUCAAAUUUCAAUGGCGUCCGGUGAUGUUGAGUAUCGGUGCUUCGUUGGAGGUCUAGCAUGGGCCACUGAUGACAGAGCUCUUGAGACUGCCUUCGCUCAAUACGGCGACGUUAUUGAUUCCAAGGUCUGUUACACGCCGAGAUCGGACUCCGAGUGAUAUCGAUGAUCUCAUCCUCGACGGAUCUGUUCCGAUCUUGUGUUUCUCUGUUACUUGAUUCGAUUACUCUGUUACUAUUCUCGUUCUUUGUUACUACUACUACUACUACUGUUACUUGUAUUUUCCCAAAUCGGUACGUUCAUCUUCCUGCUUCUGUGAGCCCGGAGAUCGAUCGGAUUUUUUUGUAUUUUGUAUAUUUGUUGUAGAUCUAAAUGCUUUUGUUCAGUUUUGUUGGAUUGUUUUGCUGAUCUGGUUUUUGUAUUAUUUGGAUAACAGAUCAUUAACGAUCGUGAGACUGGAAGAUCAAGGGGAUUCGGAUUCGUCACCUUCAAGGAUGAGAAAGCCAUGAAGGAUGCGAUUGAGGGAAUGAACGGACAAGAUCUCGAUGGCCGUAGCAUCACUGUUAACGAGGCUCAGUCACGAGGAAGCGGUGGCGGCGGAGGCCACCGUGGAGGUGGUGGCGGUGGAUACCGCAGCGGCGGUGGUGGAGGUUACUCCGGUGGAGGUGGUAGCUACGGAGGUGGCGGCGGUAGACGCGAGGGUGGAGGAGGAUACAGCGGCGGCGGCGGCGGUUACUCCUCAAGAGGUGGUGGUGGCGGAAGCUACGGUGGUGGAAGACGUGAGGGAGGAGGAGGAUACGGUGGUGGUGAAGGAGGAGGUUACGGAGGAAGCGGUGGUGGUGGAGGAUGGUAAUUCCUUUAAUUAGGUUUGGGAUUACCAAUGAAUGUUCUCUCUCUCGCUUGUUAUGCUUCUACUUGGUUUUGUGUGUUCUCUAUUUUGUUCUGGUUCUGCUUUAGAUUUGAUGUAACAGUUCGUGAUUAGGUAUUUUGGUAUCUGGAAACGUAAUGUUAAGUCACUUGUCAUUCUCUAAAUAACAAAUUUCUUCGGAGAUAUUAUCUCUGUUGAUUGAUUCUAUCAUCUAAAUUUCGGAAAUGCUAAUCGGAUACCGGAAUGGUGCCUUUGUUACGAUUGAGUUACUUACAUCACUGAUACAACAAUGAAGUACUUACUGAUUAUCUUUAUACCAUUCACCACACUACCUUUGAUAUUCAACAAUGAAGUAGAAACCUAUUUGGUUCAUUCGCA [AtGRP7]	19.3	172	21.3	16200	364	1790	606	
GGCUCGAAACGAGGAGAAAAAAUCAUUAGUUAUCGAAAAUGCUCACAUGAUGUGGGCCUAACCACUAACCCAAUUAACCACACAUCUUAAUCAGAGUAAGUUGAAACAAAUCUUUCAGCAAACCCUAGAAAACAUGUUUAACCCUAGUUAUUACGUCACACCUGUUCUAUAAAUUAAGGCUGCGUCUUAUCACCUCAAAUCACAUAAGUCUCUCUCUUACAUUUUGAAACCCUAAUUUCUCUUCUUUUCCCCAAAAAAAAAUGUCUGAAGUUGAGUACCGGUGCUUUGUCGGCGGCCUUGCCUGGGCCACCAAUGAUGAAGAUCUUCAAAGGACGUUCUCACAGUUCGGCGACGUUAUCGAUUCUAAGGUCUGUUACACGAGAGAUCGGUCUCCCGGAUCGAGCCGAUUCCGAUGAUUCUGAUCCUCGACGGAUCUGAUUCCGAUCUGUUUCUCUGUUACUUGAUUCGAUUACUGUUACUAUGUUCUCUCUCGUUCUUUGUUACUGUUACUUAAUUUGUCCCAUCGGUACGUUCAUCUUCCUGCUUCUAUGAGCUCGGAGAUCGAUCGAUUUUUGCUUUAUAUUCAUCGCUUUGUUUUAUAUUCCUUCCACGAUUGUUUUUGCUGAUGUGUAUGAUUUUGUUUGUUUACAGAUCAUUAACGACCGCGAGAGUGGAAGAUCAAGGGGAUUCGGAUUCGUCACCUUCAAGGACGAGAAAGCCAUGAGGGAUGCGAUUGAAGAGAUGAACGGUAAAGAGCUCGAUGGACGUGUCAUCACCGUGAACGAGGCUCAGUCGAGAGGUAGCGGCGGUGGCGGAGGAGGCCGUGGUGGAAGCGGUGGUGGUUACCGCAGCGGAGGCGGUGGUGGAUACUCAGGAGGCGGUGGCGGCGGAUACUCAGGAGGAGGCGGUGGUGGUUACGAGAGACGUAGCGGAGGUUACGGAUCUGGUGGAGGCGGUGGUGGCCGAGGAUACGGUGGUGGUGGACGCCGUGAGGGAGGUGGCUACGGAGGCGGUGAUGGUGGAAGUUACGGAGGCGGUGGUGGCGGCUGGUAAUCAAAGAUAGAGUUGUUUGCGUGCUGCUGCUCUGUUUUUGGUUUAGAUUUGGUUUUGUGUCACCACUUCUGGUUUGGUUAUCGUUCGUUUGGUUUACUUUUUUGAUGAAACAGUUUCGUUUAAGUCUUCUUUGUCUGGAACGAAAUGUUAAUUCGCGUGUUGUUUACUAAAUUUAUAACGUUUCCUUUUAACCAGAUUCGAGAUUUUCCCUCAAAUAAUUUAUCUUGUUAGACACAUGUAUUUAAUCGAACAGCAGCUAAAGGAUUCAAAUGAUUUUCUUAUCAAUAAUUACUAUAGUUUGAAAUUGAUUAGUUCUUUAACUUUUGACCUACCAAUA [AtGRP8]	3.39	312		502	156	923	1370	
UCUUGUUCUGGUUUGGUUUUGAAC [Bn-miRnovel2]	0.041	35	0.267	5.8	260	29	22	4.49
UGGAGAAGCAGGGCACGUGCA [miR164]				21	42			5.93
